Assay results taken from the supplement of paper PMC10126150.
± gives the standard deviation of the averaged measurements.

System: ATP
Test: switch fluorescence ratio, 500 uM ATP over buffer (Cy3 cluster intensity, sum of 5 cycles each) (fold (ratio)); higher = stronger signal-on switching upon ATP binding; sequences stand for … in TCGTCGGCAGCGTCAGATGTGTATAAGAGACAGTTTTTTTTTTTTTTTTTTTTTTTTT…TC
Conditions: aptamer strand: ATP DNA aptamer (quencher-CACCTGGGGGAGTATTGCGGAGGAAGG + anchor), 100 nM annealed; ATP concentration: 500 uM
Method in brief: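 Cy3-labelled switching-strand clusters on a modified Illumina MiSeq flow-cell were annealed to 100 nM quencher-labelled ATP aptamer and imaged first in selection buffer, then after 15 min with 500 uM ATP at 22 °C. NaOH stripping and re-annealing separated each of five buffer/ATP cycles, and clusters outside 100-1000 RFU were excluded. The fluorescence ratio sums target-cycle Cy3 intensity over buffer-cycle Cy3 intensity per cluster and averages it per switch-domain sequence.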
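Also: ATP exposure 15 min at 22 °C before imaging.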

GTTTTTTGGC
switch fluorescence ratio: 0.97 ± 0.058

GTTTTTTTGT
switch fluorescence ratio: 0.966 ± 0.001

GTTTTTTTTC
switch fluorescence ratio: 0.985 ± 0.011

TAAAAAAAAG
switch fluorescence ratio: 1.01 ± 0.039

TAAAAAAATA
switch fluorescence ratio: 0.971 ± 0.0079

TAAAAAATAT
switch fluorescence ratio: 0.967 ± 0.043

TAAAAAATTT
switch fluorescence ratio: 1.02 ± 0.035

TAAAAATATA
switch fluorescence ratio: 1 ± 0.034

TAAAACTAAA
switch fluorescence ratio: 0.9977 ± 0.0012

TAAAAGGAAA
switch fluorescence ratio: 0.9773 ± 0.0045

TAAAAGGCAA
switch fluorescence ratio: 1.14 ± 0.085

TAAAAGGGGA
switch fluorescence ratio: 0.982 ± 0.029

TAAAAGTCCG
switch fluorescence ratio: 1.06 ± 0.022

TAAAAGTGAG
switch fluorescence ratio: 1 ± 0.022

TAAAAGTGTT
switch fluorescence ratio: 1.07 ± 0.059

TAAAAGTTGG
switch fluorescence ratio: 0.985 ± 0.029

TAAAATAGTT
switch fluorescence ratio: 0.972 ± 0.026

TAAAATCCGT
switch fluorescence ratio: 0.981 ± 0.011

TAAAATCGGG
switch fluorescence ratio: 0.958 ± 0.023

TAAAATGAGG
switch fluorescence ratio: 0.987 ± 0.043

TAAAATGCCG
switch fluorescence ratio: 1.01 ± 0.061

TAAAATTGAA
switch fluorescence ratio: 0.9905 ± 0.0041

TAAAATTGGG
switch fluorescence ratio: 0.989 ± 0.014

TAAACAATTA
switch fluorescence ratio: 0.9734 ± 0.0095

TAAACCCACT
switch fluorescence ratio: 1.24 ± 0.063

TAAACGGGAC
switch fluorescence ratio: 1.11 ± 0.019

TAAACTCCTT
switch fluorescence ratio: 1.05 ± 0.035

TAAACTGACG
switch fluorescence ratio: 1.03 ± 0.051

TAAACTGCGG
switch fluorescence ratio: 1.03 ± 0.02

TAAACTGGGA
switch fluorescence ratio: 1.004 ± 0.0093

TAAAGAACGT
switch fluorescence ratio: 0.942 ± 0.015

TAAAGATAGC
switch fluorescence ratio: 1.02 ± 0.064

TAAAGATGAG
switch fluorescence ratio: 1.0091 ± 0.00022

TAAAGCGGTG
switch fluorescence ratio: 0.992 ± 0.027

TAAAGCTTTT
switch fluorescence ratio: 1.09 ± 0.16

TAAAGGCGAG
switch fluorescence ratio: 1.02 ± 0.027

TAAAGGCTTG
switch fluorescence ratio: 0.976 ± 0.034

TAAAGGGCAC
switch fluorescence ratio: 1.011 ± 0.0093

TAAAGGTATG
switch fluorescence ratio: 1.02 ± 0.013

TAAAGGTTGG
switch fluorescence ratio: 0.962 ± 0.025

TAAAGTAGTC
switch fluorescence ratio: 1.05 ± 0.044

TAAAGTATTT
switch fluorescence ratio: 1.04 ± 0.073

TAAAGTTAGA
switch fluorescence ratio: 0.989 ± 0.012

TAAAGTTAGC
switch fluorescence ratio: 0.995 ± 0.028

TAAAGTTCAG
switch fluorescence ratio: 0.9685 ± 0.0073

TAAAGTTTTT
switch fluorescence ratio: 1.002 ± 0.0088

TAAATAGGGC
switch fluorescence ratio: 1.02 ± 0.045

TAAATATTT
switch fluorescence ratio: 0.996 ± 0.025

TAAATCACGG
switch fluorescence ratio: 1.02 ± 0.038

TAAATCCGGT
switch fluorescence ratio: 0.997 ± 0.041

TAAATCCTA
switch fluorescence ratio: 1.02 ± 0.022

TAAATCGTTG
switch fluorescence ratio: 0.9906 ± 0.005

TAAATGGACG
switch fluorescence ratio: 0.9669 ± 0.0095

TAAATGGGGA
switch fluorescence ratio: 0.995 ± 0.025

TAAATTGGCG
switch fluorescence ratio: 0.987 ± 0.037

TAAATTGGTT
switch fluorescence ratio: 0.981 ± 0.0078

TAAATTTGAA
switch fluorescence ratio: 0.976 ± 0.0034

TAAATTTGGG
switch fluorescence ratio: 0.974 ± 0.017

TAAATTTTTT
switch fluorescence ratio: 0.996 ± 0.032

TAACAACGTA
switch fluorescence ratio: 1.066 ± 0.0064

TAACAGATTT
switch fluorescence ratio: 0.958 ± 0.0034

TAACAGTAGG
switch fluorescence ratio: 1.05 ± 0.038

TAACATCGGT
switch fluorescence ratio: 0.996 ± 0.021

TAACATGTGG
switch fluorescence ratio: 1.017 ± 0.01

TAACCCTGAA
switch fluorescence ratio: 0.984 ± 0.015

TAACCGGATT
switch fluorescence ratio: 1.1 ± 0.053

TAACGAAACT
switch fluorescence ratio: 1.26 ± 0.28

TAACGAGTCT
switch fluorescence ratio: 1.01 ± 0.029

TAACGCAGCT
switch fluorescence ratio: 1.07 ± 0.073

TAACGGAGT
switch fluorescence ratio: 1.01 ± 0.015

TAACGGCTGC
switch fluorescence ratio: 1 ± 0.051

TAACGGGGCA
switch fluorescence ratio: 0.9842 ± 0.003

TAACGGGTGG
switch fluorescence ratio: 1.01 ± 0.037

TAACGTTTTG
switch fluorescence ratio: 0.989 ± 0.025

TAACTATTTT
switch fluorescence ratio: 1.01 ± 0.016

TAACTCACTA
switch fluorescence ratio: 1.15 ± 0.017

TAACTGTTTT
switch fluorescence ratio: 1.06 ± 0.056

TAACTTTTCG
switch fluorescence ratio: 1.004 ± 0.0028

TAAGAAAATT
switch fluorescence ratio: 0.993 ± 0.023

TAAGACAAAG
switch fluorescence ratio: 0.992 ± 0.053

TAAGACGGTT
switch fluorescence ratio: 1.01 ± 0.015

TAAGAGGTTT
switch fluorescence ratio: 0.995 ± 0.01

TAAGAGTACA
switch fluorescence ratio: 1.07 ± 0.011

TAAGAGTGCT
switch fluorescence ratio: 0.9726 ± 0.0043

TAAGAGTTC
switch fluorescence ratio: 0.99 ± 0.034
